Data published in publication PMC12283967 (Nature Communications, 2025).
Read-outs that look alike come from different tables or passages of the source.

How the values were obtained:
SEC [1] = molecular target: the molecule itself; test: SEC
SEC [2] = molecular target: the molecule itself; test: SEC; remark: listed apart in the source

B1: Sumo-His-tagged PFKM WT (enzyme, human, UniProt P08237 1-780, looked up)
chain: MTHEEHHAAKTLGIGKAIAVLTSGGDAQGMNAAVRAVVRVGIFTGARVFFVHEGYQGLVDGGDHIKEATWESVSMMLQLGGTVIGSARCKDFREREGRLRAAYNLVKRGITNLCVIGGDGSLTGADTFRSEWSDLLSDLQKAGKITDEEATKSSYLNIVGLVGSIDNDFCGTDMTIGTDSALHRIMEIVDAITTTAQSHQRTFVLEVMGRHCGYLALVTSLSCGADWVFIPECPPDDDWEEHLCRRLSETRTRGSRLNIIIVAEGAIDKNGKPITSEDIKNLVVKRLGYDTRVTVLGHVQRGGTPSAFDRILGSRMGVEAVMALLEGTPDTPACVVSLSGNQAVRLPLMECVQVTKDVTKAMDEKKFDEALKLRGRSFMNNWEVYKLLAHVRPPVSKSGSHTVAVMNVGAPAAGMNAAVRSTVRIGLIQGNRVLVVHDGFEGLAKGQIEEAGWSYVGGWTGQGGSKLGTKRTLPKKSFEQISANITKFNIQGLVIIGGFEAYTGGLELMEGRKQFDELCIPFVVIPATVSNNVPGSDFSVGADTALNTICTTCDRIKQSAAGTKRRVFIIETMGGYCGYLATMAGLAAGADAAYIFEEPFTIRDLQANVEHLVQKMKTTVKRGLVLRNEKCNENYTTDFIFNLYSEEGKGIFDSRKNVLGHMQQGGSPTPFDRNFATKMGAKAMNWMSGKIKESYRNGRIFANTPDSGCVLGMRKRALVFQPVAELKDQTDFEHRIPKEQWWLKLRPILKILAKYEIDLDTSDHAHLEHITRKRSGEAAV
Q: B1 was tested. Which “stoichiometry N” value (SEC [1]) did it give?
A: 2

Q: What about the “stoichiometry N” value (SEC [2]) of the same protein?
A: 4

B2: Sumo-His-tagged PFKM F639L (enzyme, human, UniProt P08237 1-780, looked up)
chain: MTHEEHHAAKTLGIGKAIAVLTSGGDAQGMNAAVRAVVRVGIFTGARVFFVHEGYQGLVDGGDHIKEATWESVSMMLQLGGTVIGSARCKDFREREGRLRAAYNLVKRGITNLCVIGGDGSLTGADTFRSEWSDLLSDLQKAGKITDEEATKSSYLNIVGLVGSIDNDFCGTDMTIGTDSALHRIMEIVDAITTTAQSHQRTFVLEVMGRHCGYLALVTSLSCGADWVFIPECPPDDDWEEHLCRRLSETRTRGSRLNIIIVAEGAIDKNGKPITSEDIKNLVVKRLGYDTRVTVLGHVQRGGTPSAFDRILGSRMGVEAVMALLEGTPDTPACVVSLSGNQAVRLPLMECVQVTKDVTKAMDEKKFDEALKLRGRSFMNNWEVYKLLAHVRPPVSKSGSHTVAVMNVGAPAAGMNAAVRSTVRIGLIQGNRVLVVHDGFEGLAKGQIEEAGWSYVGGWTGQGGSKLGTKRTLPKKSFEQISANITKFNIQGLVIIGGFEAYTGGLELMEGRKQFDELCIPFVVIPATVSNNVPGSDFSVGADTALNTICTTCDRIKQSAAGTKRRVFIIETMGGYCGYLATMAGLAAGADAAYIFEEPFTIRDLQANVEHLVQKMKTTVKRGLVLRNEKCNENYTTDLIFNLYSEEGKGIFDSRKNVLGHMQQGGSPTPFDRNFATKMGAKAMNWMSGKIKESYRNGRIFANTPDSGCVLGMRKRALVFQPVAELKDQTDFEHRIPKEQWWLKLRPILKILAKYEIDLDTSDHAHLEHITRKRSGEAAV
Q: B2 was tested. Which “stoichiometry N” value (SEC [2]) did it give?
A: 2
